# From article PMC9482650, “Quantitative fragmentomics allow affinity mapping of interactomes” (Nature Communications, 2022)
# Biological target: T1, APBA2_1, Q99767
# T1 sequence (Q99767 563-664, limits assumed, looked up): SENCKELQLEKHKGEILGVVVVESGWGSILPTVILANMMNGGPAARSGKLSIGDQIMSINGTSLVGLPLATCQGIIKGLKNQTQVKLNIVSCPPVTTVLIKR
# Assay: holdup assay
# Parameters: key: below the threshold = too weak to quantify, mostly under pKd 3.1 to 4
# Conditions: plain residues with an end cap or a label only (N-terminal biotin on a linker: ado-ado)
row,Binder,pKd
1,"NHSSSPETTA [TRMT13, Q9NUP7]",below the threshold

# Biological target: T2, APBA3_1, O96018
# T2 sequence (O96018 389-490, limits assumed, looked up): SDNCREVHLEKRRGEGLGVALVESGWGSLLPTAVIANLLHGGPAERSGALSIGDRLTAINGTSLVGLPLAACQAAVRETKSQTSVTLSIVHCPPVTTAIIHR
# Assay: holdup assay
# Parameters: key: below the threshold = too weak to quantify, mostly under pKd 3.1 to 4
# Conditions: plain residues with an end cap or a label only (N-terminal biotin on a linker: ado-ado)
row,Binder,pKd
1,"NHSSSPETTA [TRMT13, Q9NUP7]",below the threshold

# Biological target: ARHGEF12, Q9NZN5-2
# Assay: holdup assay
# Parameters: key: below the threshold = too weak to quantify, mostly under pKd 3.1 to 4
# Conditions: plain residues with an end cap or a label only (N-terminal biotin on a linker: ado-ado)
# Sequence of ARHGEF12, Q9NZN5-2 (Q9NZN5 other isoform, or with tags, fused parts or gaps): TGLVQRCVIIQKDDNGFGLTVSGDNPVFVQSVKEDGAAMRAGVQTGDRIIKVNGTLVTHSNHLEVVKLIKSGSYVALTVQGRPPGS
row,Binder,pKd
1,"NHSSSPETTA [TRMT13, Q9NUP7]",below the threshold

# Biological target: CASK, O14936
# Assay: holdup assay
# Parameters: key: below the threshold = too weak to quantify, mostly under pKd 3.1 to 4
# Conditions: plain residues with an end cap or a label only (N-terminal biotin on a linker: ado-ado)
# Sequence of CASK, O14936 (O14936 487-570): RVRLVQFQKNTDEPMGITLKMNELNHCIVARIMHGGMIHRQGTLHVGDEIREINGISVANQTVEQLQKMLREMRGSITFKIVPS
row,Binder,pKd
1,"NHSSSPETTA [TRMT13, Q9NUP7]",below the threshold

# Biological target: T3, DFNB31_2, Q9P202
# T3 sequence (Q9P202 274-371, limits assumed, looked up): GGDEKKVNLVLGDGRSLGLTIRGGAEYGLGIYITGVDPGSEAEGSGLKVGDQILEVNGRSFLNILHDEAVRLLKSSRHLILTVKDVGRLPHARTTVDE
# Assay: holdup assay
# Parameters: key: below the threshold = too weak to quantify, mostly under pKd 3.1 to 4
# Conditions: plain residues with an end cap or a label only (N-terminal biotin on a linker: ado-ado)
row,Binder,pKd
1,"NHSSSPETTA [TRMT13, Q9NUP7]",below the threshold

# Biological target: DLG2_2, Q15700
# Assay: holdup assay
# Parameters: key: below the threshold = too weak to quantify, mostly under pKd 3.1 to 4
# Conditions: plain residues with an end cap or a label only (N-terminal biotin on a linker: ado-ado)
# Sequence of DLG2_2, Q15700 (Q15700 189-283): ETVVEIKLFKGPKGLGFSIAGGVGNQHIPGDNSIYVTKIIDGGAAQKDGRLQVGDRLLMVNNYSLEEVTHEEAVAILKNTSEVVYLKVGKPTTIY
row,Binder,pKd
1,"NHSSSPETTA [TRMT13, Q9NUP7]",below the threshold

# Biological target: T4, DVL3, Q92997
# T4 sequence (Q92997 244-331, limits assumed, looked up): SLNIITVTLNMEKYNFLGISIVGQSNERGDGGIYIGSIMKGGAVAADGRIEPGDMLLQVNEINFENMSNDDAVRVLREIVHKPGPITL
# Assay: holdup assay
# Parameters: key: below the threshold = too weak to quantify, mostly under pKd 3.1 to 4
# Conditions: plain residues with an end cap or a label only (N-terminal biotin on a linker: ado-ado)
row,Binder,pKd
1,"NHSSSPETTA [TRMT13, Q9NUP7]",below the threshold

# Biological target: GORASP1, Q9BQQ3
# Assay: holdup assay
# Parameters: key: below the threshold = too weak to quantify, mostly under pKd 3.1 to 4
# Conditions: plain residues with an end cap or a label only (N-terminal biotin on a linker: ado-ado)
# Sequence of GORASP1, Q9BQQ3 (Q9BQQ3 1-208): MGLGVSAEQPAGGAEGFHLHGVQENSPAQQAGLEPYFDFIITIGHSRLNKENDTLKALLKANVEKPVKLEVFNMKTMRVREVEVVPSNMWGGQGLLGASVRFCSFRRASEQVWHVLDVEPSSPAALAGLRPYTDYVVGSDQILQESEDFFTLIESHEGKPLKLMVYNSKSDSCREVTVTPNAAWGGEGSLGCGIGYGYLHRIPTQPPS
row,Binder,pKd
1,"NHSSSPETTA [TRMT13, Q9NUP7]",below the threshold

# Biological target: GRIP2_3, Q9C0E4
# Assay: holdup assay
# Parameters: key: below the threshold = too weak to quantify, mostly under pKd 3.1 to 4
# Conditions: plain residues with an end cap or a label only (N-terminal biotin on a linker: ado-ado)
# Sequence of GRIP2_3, Q9C0E4 (Q9C0E4 238-339): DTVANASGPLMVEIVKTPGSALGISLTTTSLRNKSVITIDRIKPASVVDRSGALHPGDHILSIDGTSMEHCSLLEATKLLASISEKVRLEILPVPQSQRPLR
row,Binder,pKd
1,"NHSSSPETTA [TRMT13, Q9NUP7]",below the threshold

# Biological target: GRIP2_7, Q9C0E4
# Assay: holdup assay
# Parameters: key: below the threshold = too weak to quantify, mostly under pKd 3.1 to 4
# Conditions: plain residues with an end cap or a label only (N-terminal biotin on a linker: ado-ado)
# Sequence of GRIP2_7, Q9C0E4 (Q9C0E4 934-1023): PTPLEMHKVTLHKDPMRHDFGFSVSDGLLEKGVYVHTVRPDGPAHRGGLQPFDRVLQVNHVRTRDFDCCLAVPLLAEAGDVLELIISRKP
row,Binder,pKd
1,"NHSSSPETTA [TRMT13, Q9NUP7]",below the threshold

# Biological target: T5, HTRA3, P83110
# T5 sequence (P83110 354-453, limits assumed, looked up): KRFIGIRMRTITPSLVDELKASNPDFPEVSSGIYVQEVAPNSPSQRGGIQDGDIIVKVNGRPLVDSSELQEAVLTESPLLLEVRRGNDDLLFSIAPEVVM
# Assay: holdup assay
# Parameters: key: below the threshold = too weak to quantify, mostly under pKd 3.1 to 4
# Conditions: plain residues with an end cap or a label only (N-terminal biotin on a linker: ado-ado)
row,Binder,pKd
1,"NHSSSPETTA [TRMT13, Q9NUP7]",below the threshold

# Biological target: LIMK2, P53671
# Assay: holdup assay
# Parameters: key: below the threshold = too weak to quantify, mostly under pKd 3.1 to 4
# Conditions: plain residues with an end cap or a label only (N-terminal biotin on a linker: ado-ado)
# Sequence of LIMK2, P53671 (P53671 143-248): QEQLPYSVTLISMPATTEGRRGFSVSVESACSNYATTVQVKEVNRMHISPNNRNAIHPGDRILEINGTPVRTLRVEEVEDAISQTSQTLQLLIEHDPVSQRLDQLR
row,Binder,pKd
1,"NHSSSPETTA [TRMT13, Q9NUP7]",below the threshold

# Biological target: MAGI1_2, Q96QZ7
# Assay: holdup assay
# Parameters: key: below the threshold = too weak to quantify, mostly under pKd 3.1 to 4
# Conditions: plain residues with an end cap or a label only (N-terminal biotin on a linker: ado-ado)
# Sequence of MAGI1_2, Q96QZ7 (Q96QZ7 456-580): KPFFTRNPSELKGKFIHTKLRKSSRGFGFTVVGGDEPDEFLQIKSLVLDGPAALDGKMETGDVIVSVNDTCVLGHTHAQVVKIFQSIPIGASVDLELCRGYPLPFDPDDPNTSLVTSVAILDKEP
row,Binder,pKd
1,"NHSSSPETTA [TRMT13, Q9NUP7]",below the threshold

# Biological target: T6, NHERF3_3, Q5T2W1
# T6 sequence (Q5T2W1 238-333, limits assumed, looked up): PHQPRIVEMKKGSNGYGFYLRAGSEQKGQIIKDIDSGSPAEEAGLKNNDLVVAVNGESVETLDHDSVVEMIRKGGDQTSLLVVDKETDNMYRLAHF
# Assay: holdup assay
# Parameters: key: below the threshold = too weak to quantify, mostly under pKd 3.1 to 4
# Conditions: plain residues with an end cap or a label only (N-terminal biotin on a linker: ado-ado)
row,Binder,pKd
1,"NHSSSPETTA [TRMT13, Q9NUP7]",below the threshold

# Biological target: NHERF4_2, Q86UT5
# Assay: holdup assay
# Parameters: key: below the threshold = too weak to quantify, mostly under pKd 3.1 to 4
# Conditions: plain residues with an end cap or a label only (N-terminal biotin on a linker: ado-ado)
# Sequence of NHERF4_2, Q86UT5 (Q86UT5 220-308): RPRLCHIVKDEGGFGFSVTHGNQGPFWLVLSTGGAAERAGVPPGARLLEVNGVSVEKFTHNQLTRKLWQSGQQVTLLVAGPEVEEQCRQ
row,Binder,pKd
1,"NHSSSPETTA [TRMT13, Q9NUP7]",below the threshold

# Biological target: T7, PARD3B_1, Q8TEW8
# T7 sequence (Q8TEW8 196-299, limits assumed, looked up): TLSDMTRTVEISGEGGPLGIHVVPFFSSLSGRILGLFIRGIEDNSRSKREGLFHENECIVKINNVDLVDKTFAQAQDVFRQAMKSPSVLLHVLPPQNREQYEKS
# Assay: holdup assay
# Parameters: key: below the threshold = too weak to quantify, mostly under pKd 3.1 to 4
# Conditions: plain residues with an end cap or a label only (N-terminal biotin on a linker: ado-ado)
row,Binder,pKd
1,"NHSSSPETTA [TRMT13, Q9NUP7]",below the threshold

# Biological target: PARD3_3, Q8TEW0
# Assay: holdup assay
# Parameters: key: below the threshold = too weak to quantify, mostly under pKd 3.1 to 4
# Conditions: plain residues with an end cap or a label only (N-terminal biotin on a linker: ado-ado)
# Sequence of PARD3_3, Q8TEW0 (Q8TEW0 582-685): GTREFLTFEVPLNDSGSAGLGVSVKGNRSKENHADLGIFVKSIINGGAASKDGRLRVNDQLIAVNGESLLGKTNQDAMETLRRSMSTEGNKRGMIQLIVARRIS
row,Binder,pKd
1,"NHSSSPETTA [TRMT13, Q9NUP7]",below the threshold

# Biological target: T8, PDZD7_3, Q9H5P4
# T8 sequence (Q9H5P4 857-944, limits assumed, looked up): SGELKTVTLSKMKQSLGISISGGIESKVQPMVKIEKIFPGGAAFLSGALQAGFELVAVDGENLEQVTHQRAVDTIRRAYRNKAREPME
# Assay: holdup assay
# Parameters: key: below the threshold = too weak to quantify, mostly under pKd 3.1 to 4
# Conditions: plain residues with an end cap or a label only (N-terminal biotin on a linker: ado-ado)
row,Binder,pKd
1,"NHSSSPETTA [TRMT13, Q9NUP7]",below the threshold

# Biological target: SCRIB_1, Q14160
# Assay: holdup assay
# Parameters: key: below the threshold = too weak to quantify, mostly under pKd 3.1 to 4
# Conditions: plain residues with an end cap or a label only (N-terminal biotin on a linker: ado-ado)
# Sequence of SCRIB_1, Q14160 (Q14160 718-814): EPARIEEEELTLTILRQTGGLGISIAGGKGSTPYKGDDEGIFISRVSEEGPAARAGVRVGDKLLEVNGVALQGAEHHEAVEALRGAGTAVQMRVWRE
row,Binder,pKd
1,"NHSSSPETTA [TRMT13, Q9NUP7]",below the threshold

# Biological target: SCRIB_3, Q14160
# Assay: holdup assay
# Parameters: key: below the threshold = too weak to quantify, mostly under pKd 3.1 to 4
# Conditions: plain residues with an end cap or a label only (N-terminal biotin on a linker: ado-ado)
# Sequence of SCRIB_3, Q14160 (Q14160 999-1103): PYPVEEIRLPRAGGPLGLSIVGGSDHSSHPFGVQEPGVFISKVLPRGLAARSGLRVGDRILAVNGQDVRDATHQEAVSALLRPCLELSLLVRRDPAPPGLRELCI
row,Binder,pKd
1,"NHSSSPETTA [TRMT13, Q9NUP7]",below the threshold

# Biological target: T9, SIPA1L2, Q9P2F8
# T9 sequence (Q9P2F8 945-1036, limits assumed, looked up): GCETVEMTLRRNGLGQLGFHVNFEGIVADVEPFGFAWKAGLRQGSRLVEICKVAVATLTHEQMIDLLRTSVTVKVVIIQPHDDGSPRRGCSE
# Assay: holdup assay
# Parameters: key: below the threshold = too weak to quantify, mostly under pKd 3.1 to 4
# Conditions: plain residues with an end cap or a label only (N-terminal biotin on a linker: ado-ado)
row,Binder,pKd
1,"NHSSSPETTA [TRMT13, Q9NUP7]",below the threshold

# Biological target: T10, SNTA1, Q13424
# T10 sequence (Q13424 82-180, limits assumed, looked up): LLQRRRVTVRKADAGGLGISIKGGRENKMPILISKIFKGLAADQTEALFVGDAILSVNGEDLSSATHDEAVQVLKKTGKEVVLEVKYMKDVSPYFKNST
# Assay: holdup assay
# Parameters: key: below the threshold = too weak to quantify, mostly under pKd 3.1 to 4
# Conditions: plain residues with an end cap or a label only (N-terminal biotin on a linker: ado-ado)
row,Binder,pKd
1,"NHSSSPETTA [TRMT13, Q9NUP7]",below the threshold

# Biological target: T11, SNTG1, Q9NSN8
# T11 sequence (Q9NSN8 52-150, limits assumed, looked up): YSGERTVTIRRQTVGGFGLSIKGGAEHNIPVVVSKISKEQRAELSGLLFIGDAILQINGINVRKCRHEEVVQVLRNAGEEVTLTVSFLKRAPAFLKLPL
# Assay: holdup assay
# Parameters: key: below the threshold = too weak to quantify, mostly under pKd 3.1 to 4
# Conditions: plain residues with an end cap or a label only (N-terminal biotin on a linker: ado-ado)
row,Binder,pKd
1,"NHSSSPETTA [TRMT13, Q9NUP7]",below the threshold

# Biological target: TJP1_2, Q07157
# Assay: holdup assay
# Parameters: key: below the threshold = too weak to quantify, mostly under pKd 3.1 to 4
# Conditions: plain residues with an end cap or a label only (N-terminal biotin on a linker: ado-ado)
# Sequence of TJP1_2, Q07157 (Q07157 181-274): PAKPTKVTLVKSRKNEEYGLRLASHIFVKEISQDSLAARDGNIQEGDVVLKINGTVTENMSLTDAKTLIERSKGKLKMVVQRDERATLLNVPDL
row,Binder,pKd
1,"NHSSSPETTA [TRMT13, Q9NUP7]",below the threshold

# Biological target: TJP2_1, Q9UDY2
# Assay: holdup assay
# Parameters: key: below the threshold = too weak to quantify, mostly under pKd 3.1 to 4
# Conditions: plain residues with an end cap or a label only (N-terminal biotin on a linker: ado-ado)
# Sequence of TJP2_1, Q9UDY2 (Q9UDY2 24-128): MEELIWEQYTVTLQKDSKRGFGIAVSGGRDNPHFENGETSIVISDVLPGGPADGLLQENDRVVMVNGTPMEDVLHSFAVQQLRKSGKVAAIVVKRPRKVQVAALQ
row,Binder,pKd
1,"NHSSSPETTA [TRMT13, Q9NUP7]",below the threshold

# Biological target: T12, TJP3_3, O95049
# T12 sequence (O95049 375-456, limits assumed, looked up): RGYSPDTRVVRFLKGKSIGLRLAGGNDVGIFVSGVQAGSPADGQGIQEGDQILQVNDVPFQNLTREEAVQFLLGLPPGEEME
# Assay: holdup assay
# Parameters: key: below the threshold = too weak to quantify, mostly under pKd 3.1 to 4
# Conditions: plain residues with an end cap or a label only (N-terminal biotin on a linker: ado-ado)
row,Binder,pKd
1,"NHSSSPETTA [TRMT13, Q9NUP7]",below the threshold
